Data: article PMC546161

How the values were obtained:
[1] = biological target: His-Cdt1(193–447) (Xenopus) (UniProt Q9I9A7); assay: Coomassie densitometry of the purified complex on SDS-PAGE
[2] = biological target: His-Cdt1(193–447) (Xenopus) (UniProt Q9I9A7); assay: SEC + other: glycerol gradient sedimentation

Sequence of UniProt Q9I9A7 (Q9I9A7 193-447): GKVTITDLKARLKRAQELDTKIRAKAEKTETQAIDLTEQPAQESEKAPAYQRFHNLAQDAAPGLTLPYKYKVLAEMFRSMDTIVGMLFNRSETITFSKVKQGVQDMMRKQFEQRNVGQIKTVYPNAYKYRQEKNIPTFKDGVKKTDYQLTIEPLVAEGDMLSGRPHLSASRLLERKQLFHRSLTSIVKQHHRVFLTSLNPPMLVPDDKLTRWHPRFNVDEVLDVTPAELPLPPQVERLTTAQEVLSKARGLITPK

mini-geminin (residues 87–168), S-tagged (domain or fragment)
stoichiometry N (mini-geminin per Cdt1(193–447)) [1]: 1.9
stoichiometry N (mini-geminin per Cdt1(193–447)) [2]: 2
